Laboratory results: PMC7482061

Assays:
Assay in all cases: SEC; Superdex S200 10/300 GL, buffer A (20 mM Tris-HCl pH 7.5, 18% glycerol) with 150 mM NaCl; mass from calibration with standard proteins; quaternary structure of the purified protein
[1] = target: revRbr2 (CD1524), reverse rubrerythrin 2 of Clostridioides difficile (Clostridioides difficile (strain 630Δerm genomic DNA))
[2] = target: FdpA (CD1157), class A flavodiiron protein of Clostridioides difficile (Clostridioides difficile)
[3] = target: revRbr1 (CD1474), reverse rubrerythrin 1 of Clostridioides difficile (Clostridioides difficile (strain 630Δerm genomic DNA))

In the case of “revRbr2 (CD1524), reverse rubrerythrin 2 of Clostridioides difficile (enzyme)”, the stoichiometry N [1] is reported as 4.

“FdpA (CD1157), class A flavodiiron protein of Clostridioides difficile (enzyme)” showed a stoichiometry N [2] of 2.

For “revRbr1 (CD1474), reverse rubrerythrin 1 of Clostridioides difficile (enzyme)”, the stoichiometry N [3] was 4.
